Experimental findings from patent publication US20040071702A1 (Genmab, published 2004) are described below.

The experiment addresses T1, IL-15Rα constitutively expressed on Raji cells (UniProt Q13261 31-267, limits assumed).
T1 construct: whole, on cells; also called IL-15R-expressing Raji cells
The experiment in a line: flow cytometry, IL-15Rα-expressing Raji cells without IL-15, biotinylated 146B7, streptavidin-PE; stimulation index. For orientation: Flow cytometry measures light scatter and fluorescence of single cells or particles in a stream.

T1 sequence (Q13261 31-267 limits assumed): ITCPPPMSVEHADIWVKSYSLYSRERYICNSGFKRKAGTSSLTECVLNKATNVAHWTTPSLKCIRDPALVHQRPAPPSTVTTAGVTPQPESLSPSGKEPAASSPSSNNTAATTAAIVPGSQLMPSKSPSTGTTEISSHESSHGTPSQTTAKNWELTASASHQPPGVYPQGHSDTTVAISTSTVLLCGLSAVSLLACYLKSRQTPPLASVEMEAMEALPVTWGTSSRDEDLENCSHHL
Protocol: Raji cells are pre-incubated (20 minutes at 4° C.) with 10% human pooled AB serum (CLB, Amsterdam, Netherlands)in FACS buffer (PBS, 0.05%BSA, 0.02% NaNO₃). Raji cells (1-2*10⁵ cells/ml) were put in the wells, and 50 μl of unlabeled IL-15 was added in several concentrations (diluted in FACS buffer with 10% human AB serum). […] After washing twice in FACS buffer, 50 μl of streptavidin-phycoerythrin was added to each well (30 minutes at 4° C.). After washing twice in FACS buffer, cells were taken up in 200 μl of FACS buffer, and fluorescence intensity of at least 5000 cells per sample was determined after analysis by flow cytometry (FACS Calibur, Becton Dickinson) using CellQuest software.

B1: human anti-IL-15 antibody 146B7 (antibody, human IgG1, V domains shown)
VH: EVQLVQSGAEVKKPGESLKISCKVSGYFFTTYWIGWVRQMPGKGLEYMGIIYPGDSDTRYSPSFQGQVTISADKSISTAYLQWSSLKASDTAMYYCARGGNWNCFDYWGQGTLVTVSS
VL: EIVLTQSPGTLSLSPGERATLSCRASQSVSSSYLAWYQQKPGQAPRLLIYGASRRATGIPDRFSGSGSGTDFTLTISRLEPEDFAVYYCQRYGSSHTFGQGTKLEISR
notes: also called MDX015
In the case of B1, the binding result was “no binding (tested: 10000 (unit not printed on the sheet))”.
